Data taken from patent US20050203025A1.

What was measured:
[1] = target: desmoglein (on Fsk-7.1 mouse mammary epithelial cells) (mouse); experiment: cell-based or functional assay
[2] = target: desmocollin (on Fsk-7.1 mouse mammary epithelial cells) (mouse); experiment: cell-based or functional assay

| % (single cells + clusters <4 cells); alveolar aggregate formation of Fsk-7.1 cells, 24 hr, no desmocollin peptide [1] | % (single cells + clusters <4 cells); alveolar aggregate formation of Fsk-7.1 cells, 24 hr, together with Ac-CFATC-NH2 [1] | % (single cells + clusters <4 cells); alveolar aggregate formation of Fsk-7.1 cells, 24 hr, together with Ac-CYASC-NH2 [1] | % (single cells + clusters <4 cells); alveolar aggregate formation of Fsk-7.1 cells, 24 hr, together with Ac-CYATC-NH2 [1] | % (single cells + clusters <4 cells); alveolar aggregate formation of Fsk-7.1 cells, 24 hr, no desmoglein peptide [2] | % (single cells + clusters <4 cells); alveolar aggregate formation of Fsk-7.1 cells, 24 hr, together with H-…-OH [2] | % (single cells + clusters <4 cells); alveolar aggregate formation of Fsk-7.1 cells, 24 hr, together with H-…-OH [1] | % (single cells + clusters <4 cells); alveolar aggregate formation of Fsk-7.1 cells, 24 hr, together with Ac-CRALC-NH2 [2] | Binder |
| --- | --- | --- | --- | --- | --- | --- | --- | --- |
| 12.9% | 33.6% | 37.2% | 19.6% |  |  |  |  | Ac-CRALC-NH2 (also: cyclic peptide, bond of cyclisation not given here) [Ac-CRALC-NH2 (SEQ ID NO: 4236)] |
|  |  |  |  | 28% | 36.5% |  |  | H-LTAFATTPDG-OH [H-…-OH (SEQ ID NO: 5284)] |
| 21.7% | 39.5% | 57.2% | 58.6% |  |  | 36.5% |  | H-LTGYALDSRG-OH [H-…-OH (SEQ ID NO: 5283)] |
|  |  |  |  | 12.9% | 57.2% |  | 37.2% | Ac-CYASC-NH2 (also: cyclic peptide, bond of cyclisation not given here) [Ac-CYASC-NH2 (SEQ ID NO: 5156)] |
|  |  |  |  | 13.1% | 39.5% |  | 33.6% | Ac-CFATC-NH2 (also: cyclic peptide, bond of cyclisation not given here) [Ac-CFATC-NH2 (SEQ ID NO: 5009)] |
|  |  |  |  | 18.2% | 58.6% |  | 19.6% | Ac-CYATC-NH2 (also: cyclic peptide, bond of cyclisation not given here) [Ac-CYATC-NH2 (SEQ ID NO: 4683)] |
